Data as given in patent publication US7235366 (dated 2007).
Positions of bridges follow the written chain, without caps; N, C: chain ends. No end group written: not given here.

T1: mouse delta opioid receptor (mORD1, msl-2) (Mus musculus)
T1 chain: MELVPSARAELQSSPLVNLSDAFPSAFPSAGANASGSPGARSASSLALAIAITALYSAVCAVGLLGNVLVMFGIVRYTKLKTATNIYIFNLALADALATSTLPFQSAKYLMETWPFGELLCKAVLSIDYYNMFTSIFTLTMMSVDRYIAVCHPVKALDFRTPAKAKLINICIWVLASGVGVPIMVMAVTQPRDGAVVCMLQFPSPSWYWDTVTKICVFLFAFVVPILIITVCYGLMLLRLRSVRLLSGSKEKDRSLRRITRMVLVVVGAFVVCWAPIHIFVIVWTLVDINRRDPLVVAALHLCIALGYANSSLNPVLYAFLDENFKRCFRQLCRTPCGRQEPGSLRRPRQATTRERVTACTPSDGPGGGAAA

T2: mouse kappa opioid receptor (mORK1, msl-1) (Mus musculus)
T2 chain: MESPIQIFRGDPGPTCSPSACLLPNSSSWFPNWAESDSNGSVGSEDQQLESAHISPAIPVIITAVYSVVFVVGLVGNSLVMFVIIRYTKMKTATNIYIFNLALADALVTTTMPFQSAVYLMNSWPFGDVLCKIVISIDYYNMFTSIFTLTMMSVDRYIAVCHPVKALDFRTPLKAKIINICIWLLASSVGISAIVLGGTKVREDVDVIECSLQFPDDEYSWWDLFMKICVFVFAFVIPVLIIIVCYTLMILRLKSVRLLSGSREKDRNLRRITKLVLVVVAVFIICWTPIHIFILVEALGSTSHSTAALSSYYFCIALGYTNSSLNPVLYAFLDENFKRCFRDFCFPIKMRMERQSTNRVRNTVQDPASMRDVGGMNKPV

T3: rat mu opioid receptor (Rattus norvegicus, UniProt P33535)
T3 chain: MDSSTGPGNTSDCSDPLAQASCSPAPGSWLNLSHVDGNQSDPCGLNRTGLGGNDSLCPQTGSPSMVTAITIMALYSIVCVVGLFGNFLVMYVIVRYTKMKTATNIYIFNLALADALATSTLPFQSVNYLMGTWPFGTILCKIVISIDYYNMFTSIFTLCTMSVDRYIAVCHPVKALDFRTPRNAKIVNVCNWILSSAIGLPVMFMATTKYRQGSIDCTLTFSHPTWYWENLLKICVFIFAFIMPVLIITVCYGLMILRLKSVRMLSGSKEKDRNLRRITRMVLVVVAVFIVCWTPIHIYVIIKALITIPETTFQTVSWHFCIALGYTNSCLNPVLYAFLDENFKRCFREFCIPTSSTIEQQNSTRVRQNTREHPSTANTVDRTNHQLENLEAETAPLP

T4: delta opioid receptor D128N mutant (Mus musculus)
T4 chain: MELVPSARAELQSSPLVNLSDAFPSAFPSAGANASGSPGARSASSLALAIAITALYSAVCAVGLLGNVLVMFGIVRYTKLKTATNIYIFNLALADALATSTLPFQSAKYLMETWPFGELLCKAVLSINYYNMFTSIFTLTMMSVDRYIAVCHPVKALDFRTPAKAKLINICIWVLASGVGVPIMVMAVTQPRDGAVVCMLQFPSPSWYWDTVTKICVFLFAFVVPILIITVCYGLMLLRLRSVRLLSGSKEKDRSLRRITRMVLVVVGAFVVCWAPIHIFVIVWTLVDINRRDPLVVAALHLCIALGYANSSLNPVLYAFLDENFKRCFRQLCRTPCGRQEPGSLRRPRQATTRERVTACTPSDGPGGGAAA

T5: MOP2 (Mus musculus)
T5 chain: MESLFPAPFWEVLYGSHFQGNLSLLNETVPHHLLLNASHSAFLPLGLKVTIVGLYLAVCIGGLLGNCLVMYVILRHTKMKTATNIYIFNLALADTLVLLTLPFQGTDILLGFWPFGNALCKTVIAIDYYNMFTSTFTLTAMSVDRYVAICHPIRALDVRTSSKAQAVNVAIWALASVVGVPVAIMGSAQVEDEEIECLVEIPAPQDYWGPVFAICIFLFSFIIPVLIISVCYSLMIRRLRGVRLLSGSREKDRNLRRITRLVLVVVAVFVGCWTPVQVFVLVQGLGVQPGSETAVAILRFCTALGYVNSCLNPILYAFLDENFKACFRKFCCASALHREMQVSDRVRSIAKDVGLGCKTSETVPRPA


Experiments:
[1] = target: T1, mouse delta opioid receptor (mORD1, …); test: competition
[2] = target: T2, mouse kappa opioid receptor (mORK1, …); test: competition
[3] = target: T1, mouse delta opioid receptor (mORD1, …); test: competition
rat mu opioid receptor = target: T3, rat mu opioid receptor; test: competition
[4] = target: T4, delta opioid receptor D128N mutant; test: other (direct radioligand binding)
MOP2 = target: T5, MOP2; test: other (direct radioligand binding)

IC50 [1] [nM]	IC50 [2] [nM]	Ki [3] [nM]	Ki (rat mu opioid receptor) [nM]	binding result [4]	binding result (MOP2)	Binder
> 1000	> 1000					SANSNPAMAPRERKAGCKNFFWKTFTSC (disulfide 17-28 (inferred)) [SRIF]
		1	1	no binding	no binding	beta-Endorphin (protein) WCLESSQCQDLTTESNLLECIRACKPDLSAETPMFPGNGDEQPLTENPRKYVMGHFRWDRFGRRNSSSSGSSGAGQKREDVSAGEDCGPLPEGGPEPRSDGAKPGPREGKRSYSMEHFRWGKPVGKKRRPVKVYPNGAEDESAEAFPLEFKRELTGQRLREGDGPDGPADDGAGAQADLEHSLLVAAEKKDEGPYRMEHFRWGSPPKDKRYGGFMTSEKSQTPLVTLFKNAIIKNAYKKGE
